What was measured:
Experiment in all cases: cell-based or functional assay
[1] = target: CenNLS^GFP: Centauri fragment of superfolder GFP, HA tag, triple SV40 NLS
[2] = target: CenNLS^NLuc: Centauri fragment of NanoLuc, HA tag, triple SV40 NLS
[3] = target: CenNup214^NLuc: Centauri fragment of NanoLuc, HA tag, full-length Nup214 (UniProt P35658)
Sequence of UniProt P35658 (P35658 whole entry, the tested form may be a part): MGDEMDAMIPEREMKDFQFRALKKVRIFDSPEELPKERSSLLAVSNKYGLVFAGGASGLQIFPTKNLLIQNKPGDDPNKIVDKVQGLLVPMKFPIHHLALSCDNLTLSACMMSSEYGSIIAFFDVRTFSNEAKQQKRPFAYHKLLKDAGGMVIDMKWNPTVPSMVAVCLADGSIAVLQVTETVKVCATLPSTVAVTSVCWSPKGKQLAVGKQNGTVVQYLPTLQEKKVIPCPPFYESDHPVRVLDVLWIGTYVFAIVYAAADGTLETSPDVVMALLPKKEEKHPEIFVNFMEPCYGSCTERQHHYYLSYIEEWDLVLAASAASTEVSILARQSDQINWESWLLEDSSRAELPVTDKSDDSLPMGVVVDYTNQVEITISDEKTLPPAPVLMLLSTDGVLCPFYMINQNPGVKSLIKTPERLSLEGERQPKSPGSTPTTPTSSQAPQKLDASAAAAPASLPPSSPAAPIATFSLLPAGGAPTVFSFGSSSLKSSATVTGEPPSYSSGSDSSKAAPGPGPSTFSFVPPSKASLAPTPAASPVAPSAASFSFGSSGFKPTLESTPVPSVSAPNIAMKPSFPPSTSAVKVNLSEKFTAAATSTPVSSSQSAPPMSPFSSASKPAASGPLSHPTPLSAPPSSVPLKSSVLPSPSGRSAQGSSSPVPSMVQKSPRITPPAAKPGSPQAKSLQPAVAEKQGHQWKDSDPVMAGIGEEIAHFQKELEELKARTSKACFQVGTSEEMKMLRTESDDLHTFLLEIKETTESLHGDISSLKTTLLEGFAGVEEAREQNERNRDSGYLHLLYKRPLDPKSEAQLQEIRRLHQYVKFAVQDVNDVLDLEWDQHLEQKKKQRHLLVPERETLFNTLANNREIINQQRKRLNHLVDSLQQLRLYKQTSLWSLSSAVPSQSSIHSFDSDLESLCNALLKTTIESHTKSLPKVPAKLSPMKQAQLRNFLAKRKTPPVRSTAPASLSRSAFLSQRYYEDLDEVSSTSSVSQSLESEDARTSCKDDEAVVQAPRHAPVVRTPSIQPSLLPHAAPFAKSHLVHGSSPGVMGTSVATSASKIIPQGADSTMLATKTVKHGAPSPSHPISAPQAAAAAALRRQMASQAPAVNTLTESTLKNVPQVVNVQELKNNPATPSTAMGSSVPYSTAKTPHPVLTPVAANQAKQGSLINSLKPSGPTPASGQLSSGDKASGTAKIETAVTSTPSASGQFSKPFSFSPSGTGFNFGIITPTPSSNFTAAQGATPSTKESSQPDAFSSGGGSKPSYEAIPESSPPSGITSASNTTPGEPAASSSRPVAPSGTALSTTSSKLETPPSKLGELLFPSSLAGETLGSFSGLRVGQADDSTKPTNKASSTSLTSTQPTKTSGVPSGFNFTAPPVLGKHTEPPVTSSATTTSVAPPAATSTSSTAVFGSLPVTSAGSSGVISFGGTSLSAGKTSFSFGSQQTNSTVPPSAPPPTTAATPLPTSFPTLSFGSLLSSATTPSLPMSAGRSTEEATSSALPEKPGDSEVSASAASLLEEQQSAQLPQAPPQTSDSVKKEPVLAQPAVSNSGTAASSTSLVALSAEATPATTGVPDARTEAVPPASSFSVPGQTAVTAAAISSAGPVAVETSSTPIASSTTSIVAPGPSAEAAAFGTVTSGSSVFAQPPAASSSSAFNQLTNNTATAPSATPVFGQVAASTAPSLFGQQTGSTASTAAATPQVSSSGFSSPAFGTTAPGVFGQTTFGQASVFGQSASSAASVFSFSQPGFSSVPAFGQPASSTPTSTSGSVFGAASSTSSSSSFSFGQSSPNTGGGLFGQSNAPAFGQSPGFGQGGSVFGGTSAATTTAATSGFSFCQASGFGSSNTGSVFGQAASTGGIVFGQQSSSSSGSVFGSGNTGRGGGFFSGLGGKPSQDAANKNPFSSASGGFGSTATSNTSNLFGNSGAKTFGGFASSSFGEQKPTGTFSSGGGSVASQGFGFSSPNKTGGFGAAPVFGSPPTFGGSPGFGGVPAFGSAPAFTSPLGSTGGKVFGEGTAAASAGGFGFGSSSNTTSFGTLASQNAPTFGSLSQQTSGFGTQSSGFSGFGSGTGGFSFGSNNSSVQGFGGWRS

Substance: HIV-1 LAI integrase (IN) with α^GFP fused at its C-terminus, as carried by αHIV^GFP (from UniProt P03367 1160-1447)
- fold increase in fluorescence (flow cytometry, 48 hpi) [1]: 5 to 10 fold

Substance: HIV-1 LAI integrase (IN) with α^NLuc fused at its C-terminus, as carried by αHIV^NLuc (from UniProt P03367 1160-1447)
- fold increase in emitted luminescence signal (plate luminometry) [2]: 5 to 200 fold
- fold increase in NLuc signal [3]: 10 fold

Substance: HIV-1 LAI integrase D116I mutant with α^NLuc fused at its C-terminus, as carried by αHIV-D116I^NLuc (from UniProt P03367 1160-1447)
- fold increase in NLuc compared to infection in the presence of Nevirapine [2]: 10 fold

Substance: IRF3α-3xFLAG: IRF3 fused to the α fragment of NanoLuc and a 3xFLAG tag (from UniProt Q14653 1-427)
- αCentauri complementation, luminescence fold above uninfected controls (SeV infection, 6 h) [2]: 3 to 6 fold

From EP3971294A1
